Results: EP4047016A1 (Université de Strasbourg, dated 2022)

How the values were obtained:
[1] = target: T1, recombinant murine TNC (mTNC) (murine); assay: isothermal fluorescence titration, fluorescently tagged mTNC 700 nM, Nb 500-3500 nM
T1 construct: also called recombinant mTNC

[2] = target: T2, recombinant human Tenascin-C (rhTNC) (human); assay: indirect ELISA on rhTNC, Nb dilutions 5x10^-7 M to 5x10^-12 M
T2 construct: It was purified on a Ni column, but no tag is described; also called recombinant hTNC

B1: single-domain antibody directed against Tenascin-C (TNC) Nb3 (VHH)
VHH: WLQLVESGGGSVQTGGSLRLSCVVSGYTNSIYTLAWFRQAPGKEREGVAAIGSRNGNTYYDASVKDRFTISLDKAKNTVYLQMNDLKPEDTASYYCAAGSSWDLILQAYAYDYWGQGTQVTVSS
modifications: Conjugated to 5 nm colloidal gold in the electron microscopy assay only.
notes: also called C3
**Q.** With B1 as the binder, how does the Kd [1] read?
**A.** 711 nM

**Q.** What about the EC50 [2] of the same binder?
**A.** ~10 nM

B2: single-domain antibody directed against Tenascin-C (TNC) Nb4 (VHH)
VHH: WVQLVESGGGSVQTGGSLRLSCVVSGYTNSIYTLAWFRQAPGKEREGVAAIASRNGNTYYDASVKDRFTISLDKAKNTVYLQMNGLKPEDTASYYCAAGSSWDLILQAYAYDYWGQGTQVTVSS
modifications: Conjugated to 5 nm colloidal gold in the electron microscopy assay only.
notes: Dromedary VHH made in the E. coli WK6 periplasm and purified by IMAC; Conjugated to 5 nm colloidal gold for electron microscopy; also called C4
**Q.** Which results are given for B2?
**A.** Kd [1]: 537 nM; EC50 [2]: ~5 nM
